Source: the nanobody polyreactivity screen of Harvey et al. (2022)

Assay: yeast display, Sf9 membrane polyspecificity reagent, FACS + sequencing; frameworks hold sequencing errors
Procedure, shortened: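 In a synthetic yeast display library (Saccharomyces cerevisiae BJ5465), nanobody expression was induced with galactose for 36–48 hours. FACS gates were set low and high (top ~1%) using anti-HA fluorescence for expression and streptavidin fluorescence for binding of the Sf9 membrane reagent. Each polyreactivity label is drawn from the gate of origin.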

Sequence	polyreactivity (PSR sort gate)
QVQLVETGGGLVQAGGSLRLSCAASGSTFRYYAMGWYRQAPGTERELVAGISSNGGRTYYADSVKWRFTISRDNAKNTVYLQMNILKPEDTAVYYCNAGPYSRLYGDRDYDYWGQGTQVTVSS	high polyreactivity
QVQLVETGGGLVQAGGSLRLSCAASGSTFVYNAMGWYRPAPGNERELVAAITNSGSTYYADSVKGRFTISRDNAKNTVYLQMNSLKPEDTAVYDCAARSRVYWARSGYWGQGTQVTVSS	low polyreactivity
QVQLVETGGGLVQAGGSLRLSCAASGSTFYYNAMGWYRQAPGKERELVARITRSGGSTYADSVKGRFTISRDNAKNSVYLQMNSLKPEVTAVYYWNADAYGTPEFTSYALRYDYWGQGTQVTVSS	low polyreactivity
QVQLVETGGGLVQAGGSLRLSCAASGYTFASNDMVWYRQAPGKERELVAAITKGGGRTYYADSVKGRFTISRDNAKNTVYLQMNRLKPEDTAVYFCAARQLIKYDYCGQGTQVTVSS	low polyreactivity
QVQLVETGGGLVQAGGSLRLSCAASVRIIWGNAMGWYRQAPGTERELVAALRASGGSTHYADSVKGRFTISRDNAKKTVYFQINSLKPEDTAVYYCIAVKRVGAYWGRSFAYYYWGQGTQVTVSS	high polyreactivity
QVQLVETGGGLVQAGGSLRLSCAAYGSIFIGYAMGWYRQAPGKERELVAAISNSGGRTYYADSVKGRFTISRDNAKNTVYLQMNSLKPEDTEVYYCNVDYRIPYRMDYWGQGTQVTVSS	high polyreactivity
QVQLVETGGGLVQAGGSLRLSCADSGFIFRYYAMGRYRQAPGKERELVAAISSRGASTYYADSVKGRFTISRDNEKNTVYLQMNRLKPEDTAVYDCNARFNRASEMDYWGQGTQVTVSS	high polyreactivity
QVQLVETGGGLVQAGGSLRLSCAGSGSTFTSYVMGWYRQAPGKERELVAAITSSGGDTYYADSVKGRFTISRDNAKNTVYLQMNSLKPEVTAVYYCATRSYYRSSYYRNRYPYDYWGQGTQVTVSS	low polyreactivity
QVQLVETGGGLVQAGGSLRLSCAPSGRTFYYYAMGWYRQAPGKERELVAAISYSVGSTYYADSVKGRFTISRDNAKTTVYLQMNSLKPEDTEVYYCAASRASSSRGEYYYWGQGTLVTVSS	low polyreactivity
QVQLVETGGGLVQAGGSLRLSCASSGITFYRYGKGRYRQAPGKERELVAAITYNGGGTYYADSVKGRFTISRDNAKNTVYLQMNSLKPEDTAVYYCATLRPYAYPQYDSWGQGTQVTVSS	high polyreactivity
QVQLVETGGGLVQAGGSLRLSCASSGRTCVDNTMGWYRQEPGKESELVATITSGDSTNYEESVKGRFTISRDNAKYTVYLQMNSLKPEDTAVYYCAAVTNWYYYYTHRMEYWGQGTQVTVSS	low polyreactivity
QVQLVETGGGLVQAGGSLRLSCASSGSIFRAYAMGWYRQAPGNERELVAYISRSGGSTYYADSVKGRFTISRDNAKNTVYLQMNSLTQEDTAFYYCAAVFYLYSNLYGEYDYWGQGTQVTVSS	low polyreactivity
QVQLVETGGGLVQAGGSLRLSCDASGRTFRIYGMGWYRQAPGKERELVAAISYSTGGTYYADSVKGRFTISRDNAKNTVYLQMTSLKPEDTAVYYCAAVVYAYLYADYDYWGQGTQVTVSS	low polyreactivity
QVQLVETGGGLVQAGGSLRLSFGASGSTFSQYGMGLYRQAPGKVRELVAAIRRSGGRTYYADSVKGRFTISLDNAKNTVYLQMNSLKPEDTAVYYCAADEYRYYFYRPGIGYDYWGQGTQVTVSS	low polyreactivity
QVQLVETGGGLVQAGGSLRLSSAASGITFKWNDMGCYRQAPGKEREFVAAITGSTGSTFYADSVKGRFTISRDNAKNTVYLQMNSLKPEDTAVYYCAAGPWFYYWGQGTEVTVSS	low polyreactivity
QVQLVETGGGLVQAGGSLRLSSAASGRIFRNYTMGWYRQAPGKERELVAAISSSGGRTYYADSVKGRFTISRDNEKNTVYLQMNSLKPEDTAVYYCNTDGPTWYPTYDYWGQGTQVTVSS	high polyreactivity
QVQLVETGGGLVQARGSLRLSCAASVSILYGNAMGWYRQAPGKERELVAAISRGGSTYYADSVKGRFTISRDNAKNTVYLQMNSLKPEDTAVYYCNALYTSYYRPSGMGYWGQGTQVTVSS	high polyreactivity
QVQLVETGGGLVQSGGSLRLSCAASGSTFTYYAMGWYRQAPGKERELVAAIDFSGTSTYYADSVKGRFTISRDNAKNTVYLQMNCLKPEDTAVYFCAASQSLYWGGAHDNGEFGYWGQGTQVTVSS	low polyreactivity
QVQLVETGGLLVQAGGSLRLTCAGSGLIFYYYAMGCYRQAPGKERELVATISWYGGSTYADSVKGRFTISRDNAKNTVYLQMNSLKPEDPAVYYCAARYFVYYLEVDYWGQGTQVTVSS	low polyreactivity
QVQLVETGGRLVQAGGSLRLSCAASGFTFHQYTMGWYRQAPGKESELVAAITGTGDTYYADSVKGRFTISRDNAKNTVNLQMNSLKPEDTAVYYCAADWVTYWYYKGFYYWGQGTQVTVSS	high polyreactivity
QVQLVETGGVLVQAGGSLRLSCAASGRIFFYYVMGWYRQAPGKERELVAGITRGGITNYADSVKGRLTISRDNAKNTVYLQMNSLKPEDTAVYYCKARAPSYYRYRASAAYDYWGLGTQVTVSS	high polyreactivity
QVQLVETGRGLFHAGGSLRLSCAASGGIFRVYAMGWYIPAPGKERELVAAISRSGSSTYYADSVKGRFTISRDNAKNTVYLQMNSLKPEDTAVYYCNAYSQYWLGNNYWGQGTQVTVSS	high polyreactivity

Sequence	polyreactivity (PSR sort gate)
QVQLVETGRGLVQAGGSLRLSCAASGSTFGSYAMGWYRPAPGKEREFVATISRSGGRTYYAASVKGRFTISRDNAKNTVYFQMNSLKPEDTAVYYCATDRRYWIGYDYWGQGTQVTVSS	high polyreactivity
QVQLVETGVGLVQAGGSLRLSCAASGRIFKRNTMGWYRQAPGKEREFVASITFSGGSTNYADSVKGRFTISRDNAKNTVYLQMNSLKPEDTAVYYCAARDYHYSTYDYWGQGTQVTVSS	low polyreactivity
QVQLVETGVGLVQAGGSLRLSCAASGRTFTTYAMGWYRQAPGKERELVAAITGSGGSTYYADSVNGRFTISRDNAKNTVYLQMNSLKPEDTAVYDCAKGYHQYAGFYYWGQGTQVTVSS	high polyreactivity
QVQLVETRGGLVQAGGSLRLSCAASGPIIRYYDMGCYRQAPGTERELVSASNAAGTSTYYADSVKGRFTISRDNAKNTVYLQMNSLKPEDTAVYYCAAQPYYGGGCYCYTRNYKLNYWGQGTQVTVSS	high polyreactivity
QVQLVEYVELLVQAVGILSLSCAASGLTIYYYIMGWYLHAPRKEREFLAAISNSGCRPYYADSVNGRFTISRDNAKNTDYLQMNSLIPEDTPVYYCAAQSRYGGKFLYWGQGTQVTVSS	high polyreactivity
QVQLVGSGGGLVQAGGSLRLSCAASGRIFDKNAMGWYRQAPGKERELVAAISGGGRTYYADSVKGRFTISRDNAKNTVYLQMNSLKQEDTAVYYCNVPYYYTGGSYGYWGQGTQVTVSS	low polyreactivity
QVQLVHSGGGLVQAGGILRLSCAASGYTFGYYTRGWYRQAPGKERELVASIDSGGGTNYADSVKGRFSISRDNAKKTVYLQMNSLKPEDNAVYYCAAESPLYWVEDFESGWRFYYCGQGTQVTVSS	low polyreactivity
QVQLVHSGGGLVQEGGSLRLSCAASGSIFYSYGMGWYRQAPGKERELVAAITSSGGGTYYADSVKGRFTISRDNAKNNVYLQMNSVKAEDTAVYYCAADDRNYNYYPTFYYWGQGTQVTVSS	low polyreactivity
QVQLVKSGGGLVQAGGSLRLSCAASGSTFYNDMGGYIHSPGKEIELVAAISIGGSTYYADSVKGRFTISRDNANHTVYLQMSCLKPEDTAVYYCAAVWYTSRQKYDYWGQGTQVTVTS	low polyreactivity
QVQLVKSGGGLVQAGGSLRLTCAASGFTFFVYAMGWYRQAPGKETELVAAITSSGGSTYYADSVKGRFTISRDNAKNTVYLQMNSLKPEDTAVYYCAPDRYSYLGYPYEYEYWGQGTQVTVSS	low polyreactivity
QVQLVQSGGGLVQAGGSLRLSCAASGIIFYVYAMGWYRQAPGKERELVAAISRSGGRTYYADSVKGRFTISRDNPKNTVYLQMNSLKPEDTAVYYCAAVYPRQVSQVWRDDYWGQGTQVTVSS	high polyreactivity
QVQLVQSGGGLVQAGGSLRLSCAASGLTFYYNVMGWYRQATGKERELVAAITSGGRTYYGDSVKGRFTISRDNAKNTVYLQMNSLKPEDTAVYYCARPYSRAYDYWGQGTEVTVSS	high polyreactivity
QVQLVQSGGGLVQAGGSLRLSCAASGRIFRLSGMGWYRQAPGKERELVAAITRGASTYYADSVKGRFTISRDNAKNTVYLELNSLKPEDTAVYYCAAEGLITGGYWHLYYWGHGTQVTVSS	high polyreactivity
QVQLVQSGGGLVQAGGSLRLSCAASGRIFVDNAMAWYRQAPGKERELDAGLTTGGSTYYADSVKGRFTISRDNAKNTVYLQMNSLKPEDTAVYYCNARDHALHRDVLYWYGFDYWAQGTQVTVSS	low polyreactivity
QVQLVQSGGGLVQAGGSLRLSCAASGSIFGDYAMGWYRQAPGKEREFVARINVSGTSTFYADSVKGRFTISRDNAKNTVYLQMNSLKPEDTAVYYCAARGLPSNYYYYVHGYIMDYWGQGTQVTVSS	low polyreactivity
QVQLVQSGGGLVQAGGSLRLSCAASGSIIGTYAMGCYRQAPGKERELVADINSGGSTYYADSVKGRFTISRDNAKNTVYLQMNSLKPDDTAVYYCAATGGVLYGTWLSYDRWGGGYWGQGTQVTVSS	low polyreactivity
QVQLVQSGGGLVQAGGSLRLSCAASGSTFPQNAMGWNRQAPGKERELVAVISRSGGNTYYADSVKGRFTISRDNAKNTVYLQMNSLKPEDTAVYYCATRVNTTYDYWGQGTQVTVSS	low polyreactivity
QVQLVQSGGGLVQAGGSLRLSCAASGSTFSGYTMGWYRQAPGKEREFVAAISSRGGSTYYADSVKGRFTISRDNAKNTVYLQMNSLKPEDTAVYYCAAKVWARVDGRQFRMEYWGQGTQVTVSS	high polyreactivity
QVQLVQSGGGLVQAGGSLRLSCAASGSTFYVYAMGWYRQAPGKEREFVAAISRSGGRTYYAVSVKGRFTISRDNAKNTVYLQMNSLKPEDTAVYYCNARDSLRYYTYYFEDYRVGYDYWGQGTQVTVSS	high polyreactivity
QVQLVQSGGGLVQAGGSLRLSCDASGSMFLVYAMGWYRQAPGKERELVAAISRSGRTYADSVKGRFTISRDNAKNTVYLQMNSLKPEDTAVYYCAAGTKRRFEGDYWVQGTQVTVSS	high polyreactivity
QVQLVQSGGGLVQAGGSLRVSCAPSGRIYAMGWSRQAPGKERELVARITKSGTSTYYADSVKGRFTISRDNAKNTVYLQMNSMKPEDTAVYYCATATFYRSVLYGYWGQGTQVTVSS	high polyreactivity
